Data as given in US20170198040A1 (Novartis, published 2017).
Values belong to the binder of their own block, whether it stands above or below them.

How the values were obtained:
MW82 (huCD32a H131) = target: T1, MW82 (huCD32a H131) (human, UniProt P12318); test: flow cytometry on stable CHO cells expressing huCD32a H131 (MW82); hIgG1 [N297A] antibody, GMFI
T1 sequence (receptor, looked up): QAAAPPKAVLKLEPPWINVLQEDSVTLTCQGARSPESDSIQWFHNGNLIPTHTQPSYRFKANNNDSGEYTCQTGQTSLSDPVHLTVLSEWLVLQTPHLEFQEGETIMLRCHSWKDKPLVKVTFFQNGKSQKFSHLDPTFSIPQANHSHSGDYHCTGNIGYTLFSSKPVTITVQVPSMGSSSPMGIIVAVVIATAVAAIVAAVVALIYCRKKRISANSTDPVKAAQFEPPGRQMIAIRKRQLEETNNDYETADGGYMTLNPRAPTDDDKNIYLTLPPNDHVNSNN
Protocol: HuCD32b and huCD32a have high degree of sequence homology. […] CHO cells were collected following detachment with PBS containing 2 mM EDTA and pelleted. Cell pellets were washed once in PBS and suspended in FACS Buffer (PBS1× containing 2% BSA, 2 mM EDTA and 0.1% NaN3), counted and suspended at 0.25×10⁶ cells per ml. 50'000 cells/well (200 μl) were then dispensed in V-bottomed 96 well plates. Plates were spun for 5 min at 1600 rpm and the supernatant discarded. […] After 3 successive washes with FACS buffer, cells were suspended in 50 μl FACS buffer containing a 1/100 dilution of the F(ab′)2 anti-human F(ab′)2-PE (Jackson Immunoresearch#109-116-097) and further incubated 30 min at 4° C. Cells were washed twice and suspended in 200 μl FACS buffer and acquired on a FACS Canto II (acquisition of 5000 cells in the live cell gate). The Geometric Mean Fluorescence (GMFI in the PE channel) was used as a measure of the binding intensity of each antibody.

[1] = target: T2, human CD32b expressed endogenously on human cells (human, UniProt P31994 43-310); test: flow cytometry on BJAB cells; biotinylated hIgG1 [N297A] antibody, streptavidin-PE, GMFI
T2 construct: whole, on cells; The background says that CD32b1 is the form on lymphoid cells and CD32b2 the form on myeloid cells; also called CD32b on primary human B cells, plasma cells, macrophages, BJAB, KARPAS422 and Daudi cells
T2 sequence (looked up): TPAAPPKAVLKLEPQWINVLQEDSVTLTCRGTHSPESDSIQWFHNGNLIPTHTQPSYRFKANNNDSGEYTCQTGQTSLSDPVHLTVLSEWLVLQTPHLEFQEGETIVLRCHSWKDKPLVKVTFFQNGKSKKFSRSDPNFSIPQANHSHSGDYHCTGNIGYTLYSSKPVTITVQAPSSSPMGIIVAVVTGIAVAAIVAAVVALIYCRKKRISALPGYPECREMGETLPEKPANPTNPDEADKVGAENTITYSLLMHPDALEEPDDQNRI
Protocol: The binding of huCD32b specific antibodies to the BJAB cell line was evaluated by flow cytometry. BJAB cells were collected and suspended in FACS Buffer (PBS1× containing 2% BSA, 2 mM EDTA), counted and suspended at 0.25×10⁶ cells per ml. 50'000 cells/well (200 μl) were then dispensed in V-bottomed 96 well plates. Plates were spun for 5 min at 1500 rpm and the supernatant discarded. […] Biotinylation of antibodies was performed using the Lightning-Link biotin conjugation kit (Type A) from Innova Biosciences (Cat. No 704-0010) according to the supplier's instructions. After 2 successive washes with FACS buffer, cells were suspended in 50 μl FACS buffer containing a 1/500 dilution of Streptavidin-PE (Invitrogen 521388) and further incubated for 20 min at 4° C. Cells were washed twice and suspended in 200 μl FACS buffer and acquired on a FACS Fortessa. The Geometric Mean Fluorescence (GMFI in the PE channel) was used as a measure of the binding intensity of each antibody.

[2] = target: T3, huCD64 (Fc gamma RI) expressed on stable CHO cells (human, UniProt P12314 16-374); test: flow cytometry on stable CHO cells expressing huCD64; hIgG1 [N297A] antibody, GMFI; the text ascribes this binding to the Fc portion
T3 construct: whole, on cells; also called CHO-huCD64
Protocol: The binding of huCD32b specific antibodies was evaluated by flow cytometry using stable CHO cell lines expressing the low affinity human CD16 variants (i.e huCD16a or huCD16b variants) and the high affinity huCD64 (FcγRI). CHO cells transfected with huCD16a variants were also transfected with the common Fcγ chain in order to allow for surface expression. CHO cells were collected following detachment with PBS containing 2 mM EDTA and pelleted. Cell pellets were washed once in PBS and suspended in FACS Buffer (PBS1× containing 2% BSA, 2 mM EDTA and 0.1% NaN3), counted and suspended at 0.25×10⁶ cells per ml. 50'000 cells/well (200 μl) were then dispensed in V-bottomed 96 well plates. Plates were spun for 5 min at 1600 rpm and the supernatant discarded. […] After 3 successive washes with FACS buffer, cells were suspended in 50 μl FACS buffer containing a 1/100 dilution of the F(ab′)2 anti-human F(ab′)2-PE (Jackson Immunoresearch#109-116-097) and further incubated 30 min at 4° C. Cells were washed twice and suspended in 200 μl FACS buffer and acquired on a FACS Canto II (acquisition of 5000 cells in the live cell gate). The Geometric Mean Fluorescence (GMFI in the PE channel) was used as a measure of the binding intensity of each antibody.

[3] = target: T2, human CD32b expressed endogenously on …; test: flow cytometry titration (GMFI), biotinylated IgG1 [N297A] on purified primary human B cells, CD20+ gate
Protocol: Plates were spun for 5 min at 1500 rpm and the supernatant discarded. […] Biotinylation of antibodies was performed using the Lightning-Link biotin conjugation kit (Type A) from Innova Biosciences (Cat. No 704-0010) according to the supplier's instructions. […] Cells were washed twice and suspended in 200 μl FACS buffer and acquired on a FACS Fortessa.

[4] = target: T4, WT human CD32b1 expressed on stably transfected cells (human, UniProt P31994 43-310); test: flow cytometry, Alexa-647 labelled hIgG1 [N297A] antibody, ΔMFI; stable BJAB cells expressing huCD32b
T4 construct: also called huCD32b; WT CD32b
T4 sequence: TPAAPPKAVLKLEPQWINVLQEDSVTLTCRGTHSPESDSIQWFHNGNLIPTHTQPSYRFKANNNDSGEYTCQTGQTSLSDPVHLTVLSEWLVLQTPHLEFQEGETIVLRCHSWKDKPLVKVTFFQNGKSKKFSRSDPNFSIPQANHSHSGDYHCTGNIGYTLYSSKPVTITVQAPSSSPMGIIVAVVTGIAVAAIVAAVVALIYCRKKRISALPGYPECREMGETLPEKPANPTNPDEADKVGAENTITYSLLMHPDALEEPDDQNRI

huCD32b-deglyco [5] = target: T5, huCD32b-deglyco (human, UniProt P31994 43-222, limits assumed, deglycosylated (deglyco) (so in the source)); test: SPR (Biacore T200), IgG amine-coupled on the chip, huCD32b-deglyco analyte 0.61-5000 nM, 1:1 binding model; single experiment
T5 construct: Soluble analyte of the SPR assay; also called huCD32b receptor (SPR analyte); human CD32b
T5 sequence: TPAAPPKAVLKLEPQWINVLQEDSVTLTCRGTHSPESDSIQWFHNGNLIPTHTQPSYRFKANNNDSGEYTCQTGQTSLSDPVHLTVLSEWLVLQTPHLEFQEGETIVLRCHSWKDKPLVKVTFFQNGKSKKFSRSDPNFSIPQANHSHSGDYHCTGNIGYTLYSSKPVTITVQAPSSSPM
Protocol: (§1) Three independent direct binding assays with IgGs covalently immobilized on the biosensor and huCD32b receptor serving as analyte were performed to determine the binding affinities of the IgGs for huCD32b. Kinetic data were acquired by subsequent injections of analyte dilution series on all flow cells. Flow cell 1 (chip 1) served as a reference.
(§2) A dilution series of huCD32b-deglyco, 0.61-5000 nM (1:2 dilution series) in running buffer was injected over the surface (flow rate: 30 μl/min, association time: 60 sec, dissociation time: 120 sec). The chip surface was regenerated with one basic wash step before each analyte injection (30 μl/min; contact time: 30 sec, stabilization period: 250 sec). Data were evaluated using the Biacore T200 evaluation software version 1.0. The raw data were double referenced, i.e. the response of the measuring flow cell was corrected for the response of the reference flow cell, and in a second step the response of a blank injection was subtracted. Outlier sensorgrams were removed if necessary. The sensorgrams were fitted by applying a 1:1 binding model to calculate kinetic rate constants and dissociation equilibrium constants. Rmax was set at global whereas RI was fitted locally. Data were processed individually for each run. The generated values were used to calculate average values and standard deviations of the respective kinetic constants.

huCD32b-deglyco [6] = target: T5, huCD32b-deglyco; test: SPR (Biacore T200), IgG amine-coupled on the chip, huCD32b-deglyco analyte 0.61-5000 nM, 1:1 binding model; mean and standard deviation of the runs
Protocol: as §1, §2

T3 sequence (P12314 16-374): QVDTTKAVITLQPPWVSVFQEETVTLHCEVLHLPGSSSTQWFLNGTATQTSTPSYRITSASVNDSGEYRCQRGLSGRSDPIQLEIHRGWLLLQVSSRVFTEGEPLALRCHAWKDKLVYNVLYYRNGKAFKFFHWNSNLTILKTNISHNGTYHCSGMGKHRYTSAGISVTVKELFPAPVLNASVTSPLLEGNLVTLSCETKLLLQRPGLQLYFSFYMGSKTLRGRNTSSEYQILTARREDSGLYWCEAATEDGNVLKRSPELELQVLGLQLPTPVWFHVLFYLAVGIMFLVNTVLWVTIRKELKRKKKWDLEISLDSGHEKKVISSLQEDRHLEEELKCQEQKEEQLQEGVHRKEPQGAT

binding result (MW82 (huCD32a H131)): binds
binding affinity (printed 'BJABs:') [1]: 19 nM
binding result [2]: binds
B1: NOV1218 (antibody, human IgG1, lambda, N297A)
heavy chain: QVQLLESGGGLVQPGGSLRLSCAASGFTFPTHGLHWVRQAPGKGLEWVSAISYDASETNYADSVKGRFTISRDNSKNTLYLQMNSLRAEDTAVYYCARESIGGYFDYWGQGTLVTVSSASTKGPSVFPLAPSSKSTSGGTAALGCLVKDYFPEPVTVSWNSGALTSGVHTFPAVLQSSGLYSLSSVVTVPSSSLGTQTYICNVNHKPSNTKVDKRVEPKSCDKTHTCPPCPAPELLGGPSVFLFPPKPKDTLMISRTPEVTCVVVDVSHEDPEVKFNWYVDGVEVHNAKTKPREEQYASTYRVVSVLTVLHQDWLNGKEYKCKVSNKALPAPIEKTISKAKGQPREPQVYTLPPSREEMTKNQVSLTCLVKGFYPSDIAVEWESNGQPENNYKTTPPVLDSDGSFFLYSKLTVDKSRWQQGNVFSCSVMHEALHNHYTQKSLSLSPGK
light chain: SYELTQPLSVSVALGQTARITCSGDALGKNTVSWYQQKPGQAPVLVIYDDTDRPSGIPERFSGSNSGNTATLTISRAQAGDEADYYCSSTDLSTVVFGGGTKLTVLGQPKAAPSVTLFPPSSEELQANKATLVCLISDFYPGAVTVAWKADSSPVKAGVETTTPSKQSNNKYAASSYLSLTPEQWKSHRSYSCQVTHEGSTVEKTVAPTECS
notes: also called NOV1218_N297A; NOV1218 N297A

binding result (MW82 (huCD32a H131)): binds
binding affinity (printed 'BJABs:') [1]: 2.4 nM
binding result [2]: binds
binding affinity [3]: 5.4 nM
B2: NOV0281_N297A (antibody, human IgG1, lambda, N297A)
heavy: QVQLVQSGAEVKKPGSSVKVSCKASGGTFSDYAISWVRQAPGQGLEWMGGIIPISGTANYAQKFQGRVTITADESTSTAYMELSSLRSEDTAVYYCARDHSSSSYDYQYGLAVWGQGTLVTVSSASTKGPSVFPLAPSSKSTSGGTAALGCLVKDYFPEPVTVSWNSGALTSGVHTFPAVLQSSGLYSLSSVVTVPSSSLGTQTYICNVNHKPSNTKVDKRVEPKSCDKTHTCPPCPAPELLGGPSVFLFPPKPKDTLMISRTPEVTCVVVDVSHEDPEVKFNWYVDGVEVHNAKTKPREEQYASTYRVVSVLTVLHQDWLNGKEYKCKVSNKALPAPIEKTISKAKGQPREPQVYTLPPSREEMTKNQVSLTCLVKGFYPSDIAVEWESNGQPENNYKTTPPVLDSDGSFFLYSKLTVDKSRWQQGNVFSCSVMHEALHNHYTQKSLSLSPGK
light: DIELTQPPSVSVSPGETASITCSGDKLGDYYVHWYQQKPGQAPVLVIYQDSKRPSGIPERFSGSNSGNTATLTISGTQAEDEADYYCGATDLSPWSIVFGGGTKLTVLGQPKAAPSVTLFPPSSEELQANKATLVCLISDFYPGAVTVAWKADSSPVKAGVETTTPSKQSNNKYAASSYLSLTPEQWKSHRSYSCQVTHEGSTVEKTVAPTECS
notes: also called NOV0281 on a human IgG1 [N297A] scaffold

binding result [4]: binds
B4: NOV2112 N297A (antibody, human IgG1, lambda, N297A)
heavy chain: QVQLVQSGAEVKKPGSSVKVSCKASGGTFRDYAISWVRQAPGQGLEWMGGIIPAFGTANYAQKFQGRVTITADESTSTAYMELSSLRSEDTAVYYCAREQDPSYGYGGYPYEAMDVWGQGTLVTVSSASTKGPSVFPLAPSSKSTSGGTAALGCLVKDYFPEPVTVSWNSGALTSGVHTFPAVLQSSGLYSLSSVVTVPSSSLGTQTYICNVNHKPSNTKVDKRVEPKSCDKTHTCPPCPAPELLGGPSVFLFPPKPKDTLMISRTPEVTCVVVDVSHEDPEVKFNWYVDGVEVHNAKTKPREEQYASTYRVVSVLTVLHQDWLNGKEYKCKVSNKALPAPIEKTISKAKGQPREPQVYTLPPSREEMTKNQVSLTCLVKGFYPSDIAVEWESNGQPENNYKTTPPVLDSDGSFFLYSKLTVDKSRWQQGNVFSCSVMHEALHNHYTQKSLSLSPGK
light chain: SYELTQPLSVSVALGQTARITCSGDNIPQHSVHWYQQKPGQAPVLVIYDDTERPSGIPERFSGSNSGNTATLTISRAQAGDEADYYCSSWDSSMDSVVFGGGTKLTVLGQPKAAPSVTLFPPSSEELQANKATLVCLISDFYPGAVTVAWKADSSPVKAGVETTTPSKQSNNKYAASSYLSLTPEQWKSHRSYSCQVTHEGSTVEKTVAPTECS

binding result [4]: binds
B6: NOV2107_N297A (antibody, human IgG1, lambda, N297A)
heavy: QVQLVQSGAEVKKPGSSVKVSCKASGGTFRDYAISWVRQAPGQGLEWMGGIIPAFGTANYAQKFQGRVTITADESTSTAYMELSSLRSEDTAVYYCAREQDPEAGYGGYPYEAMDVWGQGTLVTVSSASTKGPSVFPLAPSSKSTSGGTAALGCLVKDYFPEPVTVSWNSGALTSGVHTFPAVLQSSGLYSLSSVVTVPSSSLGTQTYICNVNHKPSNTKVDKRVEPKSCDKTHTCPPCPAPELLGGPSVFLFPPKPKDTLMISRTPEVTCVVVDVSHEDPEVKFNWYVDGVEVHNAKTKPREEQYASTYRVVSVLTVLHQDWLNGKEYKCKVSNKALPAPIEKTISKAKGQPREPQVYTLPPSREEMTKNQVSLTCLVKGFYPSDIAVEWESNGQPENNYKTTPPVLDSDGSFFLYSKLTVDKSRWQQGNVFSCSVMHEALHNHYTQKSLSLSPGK
light: SYELTQPLSVSVALGQTARITCSGDNIPQHSVHWYQQKPGQAPVLVIYDDTERPSGIPERFSGSNSGNTATLTISRAQAGDEADYYCSSWDSSMDSVVFGGGTKLTVLGQPKAAPSVTLFPPSSEELQANKATLVCLISDFYPGAVTVAWKADSSPVKAGVETTTPSKQSNNKYAASSYLSLTPEQWKSHRSYSCQVTHEGSTVEKTVAPTECS
notes: CDR-H3 mutant of NOV1216; human IgG1 with N297A; also called Fc silent N297A variant of NOV2107

The remaining lines, values behind:

B3: NOV1216_N297A (antibody, human IgG1, lambda, N297A)
heavy: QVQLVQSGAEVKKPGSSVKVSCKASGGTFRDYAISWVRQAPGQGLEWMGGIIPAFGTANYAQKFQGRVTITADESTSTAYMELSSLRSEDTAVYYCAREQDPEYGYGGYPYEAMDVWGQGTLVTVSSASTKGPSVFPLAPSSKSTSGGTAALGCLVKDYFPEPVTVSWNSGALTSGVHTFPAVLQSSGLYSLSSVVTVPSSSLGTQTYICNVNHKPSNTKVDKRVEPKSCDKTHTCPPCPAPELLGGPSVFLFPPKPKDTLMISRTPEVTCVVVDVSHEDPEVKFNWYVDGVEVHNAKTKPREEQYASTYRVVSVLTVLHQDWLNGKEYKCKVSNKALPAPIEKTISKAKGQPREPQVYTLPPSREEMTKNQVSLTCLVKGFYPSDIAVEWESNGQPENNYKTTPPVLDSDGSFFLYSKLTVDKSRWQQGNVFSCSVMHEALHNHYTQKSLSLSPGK
light: SYELTQPLSVSVALGQTARITCSGDNIPQHSVHWYQQKPGQAPVLVIYDDTERPSGIPERFSGSNSGNTATLTISRAQAGDEADYYCSSWDSSMDSVVFGGGTKLTVLGQPKAAPSVTLFPPSSEELQANKATLVCLISDFYPGAVTVAWKADSSPVKAGVETTTPSKQSNNKYAASSYLSLTPEQWKSHRSYSCQVTHEGSTVEKTVAPTECS
notes: Human IgG1 with N297A (Fc silent); also called Fc silent NOV1216
binding affinity (printed 'BJABs:') [1]: 0.7 nM
binding result [2]: binds
binding affinity [3]: 1.4 nM

B5: afucosylated NOV2108 (antibody, human IgG1, lambda)
heavy: not shown
light: SYELTQPLSVSVALGQTARITCSGDNIPQHSVHWYQQKPGQAPVLVIYDDTERPSGIPERFSGSNSGNTATLTISRAQAGDEADYYCSSWDSSMDSVVFGGGTKLTVLGQPKAAPSVTLFPPSSEELQANKATLVCLISDFYPGAVTVAWKADSSPVKAGVETTTPSKQSNNKYAASSYLSLTPEQWKSHRSYSCQVTHEGSTVEKTVAPTECS
modifications: afucosylated: N-glycan structure lacking core fucose
notes: also called NOV2108, afucosylated antibody; NOV2108 (afucosylated format)
Kd (huCD32b-deglyco [5]): 16 nM
koff (huCD32b-deglyco [5]): 0.11 s⁻¹
kon (huCD32b-deglyco [5]): 6.8e+06 M⁻¹ s⁻¹

B7: NOV2108_N297A (antibody, human IgG1, lambda, N297A)
heavy: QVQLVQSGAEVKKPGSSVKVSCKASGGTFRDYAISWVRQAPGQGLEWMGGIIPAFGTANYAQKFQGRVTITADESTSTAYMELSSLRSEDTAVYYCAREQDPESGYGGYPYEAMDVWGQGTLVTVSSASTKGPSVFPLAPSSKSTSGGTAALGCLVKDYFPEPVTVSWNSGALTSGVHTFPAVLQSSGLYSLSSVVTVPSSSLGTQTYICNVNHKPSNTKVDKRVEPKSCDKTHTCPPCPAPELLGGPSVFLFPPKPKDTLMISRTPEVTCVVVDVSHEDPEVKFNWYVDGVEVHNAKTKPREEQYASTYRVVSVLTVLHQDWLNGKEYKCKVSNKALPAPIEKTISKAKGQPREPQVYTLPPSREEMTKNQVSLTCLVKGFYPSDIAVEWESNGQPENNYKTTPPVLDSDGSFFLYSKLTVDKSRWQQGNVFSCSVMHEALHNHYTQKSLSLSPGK
light: SYELTQPLSVSVALGQTARITCSGDNIPQHSVHWYQQKPGQAPVLVIYDDTERPSGIPERFSGSNSGNTATLTISRAQAGDEADYYCSSWDSSMDSVVFGGGTKLTVLGQPKAAPSVTLFPPSSEELQANKATLVCLISDFYPGAVTVAWKADSSPVKAGVETTTPSKQSNNKYAASSYLSLTPEQWKSHRSYSCQVTHEGSTVEKTVAPTECS
notes: CDR-H3 mutant of NOV1216; human IgG1 with N297A; Alexa Fluor 647-labelled in flow cytometry; also called Fc silent NOV2108 [N297A]
Kd (huCD32b-deglyco [6]): 18 nM
koff (huCD32b-deglyco [6]): 0.29 s⁻¹
kon (huCD32b-deglyco [6]): 1.5e+07 M⁻¹ s⁻¹

B8: NOV0308_N297A (antibody, human IgG1, lambda, N297A)
heavy: not shown
light: DIELTQPPSVSVSPGQTASITCSGDNLGSKYVHWYQQKPGQAPVLVIYDDNKRPSGIPERFSGSNSGNTATLTISGTQAEDEADYYCQSWTLGNWVFGGGTKLTVLGQPKAAPSVTLFPPSSEELQANKATLVCLISDFYPGAVTVAWKADSSPVKAGVETTTPSKQSNNKYAASSYLSLTPEQWKSHRSYSCQVTHEGSTVEKTVAPTECS
notes: also called NOV0308 on a human IgG1 [N297A] scaffold
binding affinity (printed 'BJABs:') [1]: 4.2 nM
binding result [2]: binds
